# In patent US20260250399A1 (VIRIDIAN THERAPEUTICS, published 2026):
# Assays:
# [1] = target: T1, IGF-1R on cells (A549 human lung adenocarcinoma cells; primary human ocular choroid fibroblasts, HOCF) (human, UniProt P08069 31-1367); assay: flow cytometry on A549 cells, binding dose response curve
# T1 construct: whole, on cells; the same molecule is used there; also called IGFR 1; IFG1R
# Protocol: (§1) Cell binding: A549 human lung adenocarcinoma cells or primary human ocular choroid fibroblasts (HOCF) were incubated with varying concentrations of VRDN-5000 or teprotumumab. A single dose 50 nM IgG1 isotype control was used as negative control. Unbound antibody was removed by washing, and the cells were incubated with an Alexa Fluor 488-goat anti-human antibody and a cell impermeable dye to gate live cells. The median fluorescence intensity (MFI) of viable cells was measured by flow cytometry and the data were analyzed using FlowJo software. Dose curves were fitted using a non-linear regression model; log (agonist) vs response-variable slope (four parameters).
# VRDN-5000 Binds With High Affinity To IGF-1R On A549 Cells. As illustrated in FIG. 3A-C, VRDN-5000 binding to A549 cells was assessed by flow cytometry and found to have similar binding distribution as teprotumumab at three different concentrations.
# [2] = target: T1, IGF-1R on cells (A549 human lung …); assay: flow cytometry on HOCF cells, binding dose response curve
# Protocol: as §1
# FIG. 5A-B illustrate VRDN-5000 binding to HOCF cells, which was assessed by flow cytometry and found to have largely similar binding as teprotumumab at three different concentrations.
# [3] = target: T1, IGF-1R on cells (A549 human lung …); assay: cell-based or functional assay
# T1 sequence (P08069 31-1367): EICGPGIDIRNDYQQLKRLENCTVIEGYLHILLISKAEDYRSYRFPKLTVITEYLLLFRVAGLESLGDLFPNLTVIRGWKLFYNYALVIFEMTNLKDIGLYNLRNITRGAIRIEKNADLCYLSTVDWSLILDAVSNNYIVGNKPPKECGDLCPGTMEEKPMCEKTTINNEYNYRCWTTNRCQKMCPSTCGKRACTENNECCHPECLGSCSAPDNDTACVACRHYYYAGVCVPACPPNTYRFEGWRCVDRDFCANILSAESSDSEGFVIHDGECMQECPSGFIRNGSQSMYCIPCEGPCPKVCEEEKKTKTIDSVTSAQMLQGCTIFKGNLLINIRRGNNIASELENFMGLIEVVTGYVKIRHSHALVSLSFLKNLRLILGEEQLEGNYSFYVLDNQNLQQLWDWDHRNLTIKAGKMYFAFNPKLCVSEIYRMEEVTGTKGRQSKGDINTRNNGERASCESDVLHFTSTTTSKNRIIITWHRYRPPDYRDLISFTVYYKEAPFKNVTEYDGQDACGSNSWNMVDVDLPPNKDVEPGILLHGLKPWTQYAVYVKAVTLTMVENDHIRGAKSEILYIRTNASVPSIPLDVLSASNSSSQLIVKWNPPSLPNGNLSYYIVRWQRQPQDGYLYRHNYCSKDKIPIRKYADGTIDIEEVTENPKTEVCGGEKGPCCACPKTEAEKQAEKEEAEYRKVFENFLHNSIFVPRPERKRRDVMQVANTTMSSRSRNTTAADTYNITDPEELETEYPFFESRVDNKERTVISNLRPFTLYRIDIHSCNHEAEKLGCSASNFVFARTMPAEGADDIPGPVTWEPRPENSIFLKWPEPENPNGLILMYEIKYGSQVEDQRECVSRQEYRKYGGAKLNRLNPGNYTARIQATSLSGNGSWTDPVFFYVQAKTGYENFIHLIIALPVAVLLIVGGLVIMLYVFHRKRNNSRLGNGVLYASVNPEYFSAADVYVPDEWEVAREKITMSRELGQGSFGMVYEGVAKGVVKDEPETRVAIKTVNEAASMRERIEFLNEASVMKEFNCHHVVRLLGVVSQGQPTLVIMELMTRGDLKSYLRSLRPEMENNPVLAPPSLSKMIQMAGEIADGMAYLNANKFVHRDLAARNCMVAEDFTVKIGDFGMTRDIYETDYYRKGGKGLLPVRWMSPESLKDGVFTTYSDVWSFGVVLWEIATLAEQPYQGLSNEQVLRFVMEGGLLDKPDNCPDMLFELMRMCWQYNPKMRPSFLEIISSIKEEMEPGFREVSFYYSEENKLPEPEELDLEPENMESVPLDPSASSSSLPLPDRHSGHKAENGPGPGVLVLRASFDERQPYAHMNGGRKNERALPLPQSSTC
binder,measurement,setting,value
"VRDN-5000 (antibody, human IgG1, kappa, neither was used; also called VRDN-001) heavy: not shown light: DVVMTQTPLSLPVSLGDPASISCRSSQSIVHSNVNTYLEWYLQKPGQSPRLLIYKVSNRFSGVPDRFSGSGAGTDFTLRISRVEAEDLGIYYCFQGSHVPPTFGGGTKLEIKRTVAAPSVFIFPPSDEQLKSGTASVVCLLNNFYPREAKVQWKVDNALQSGNSQESVTEQDSKDSTYSLSSTLTLSKADYEKHKVYACEVTHQGLSSPVTKSFNRGEC",EC50,[1],0.1 nM
same,EC50,[2],0.4 nM
same,IC50 of IGF-1 stimulated receptor phosphorylation on A549 cells (pIGF-1R ELISA),[3],90 pM
same,IC50 of IGF-1 stimulated receptor phosphorylation on HOCF cells (pIGF-1R ELISA),[3],90 pM
